In US20140256626A1, “PEG CONJUGATES OF EXENATIDE” (priority 2011, published 2014) one finds EC50 (DiscoveRx GLP1R cAMP Hunter assay) and fold decrease of biological activity against free exenatide data, which are given here for two substances.

The assay has as its target human GLP-1 receptor (human) (UniProt P43220). In words: cell-based or functional assay.

human GLP-1 receptor (human), sequence (P43220 24-463 limits assumed): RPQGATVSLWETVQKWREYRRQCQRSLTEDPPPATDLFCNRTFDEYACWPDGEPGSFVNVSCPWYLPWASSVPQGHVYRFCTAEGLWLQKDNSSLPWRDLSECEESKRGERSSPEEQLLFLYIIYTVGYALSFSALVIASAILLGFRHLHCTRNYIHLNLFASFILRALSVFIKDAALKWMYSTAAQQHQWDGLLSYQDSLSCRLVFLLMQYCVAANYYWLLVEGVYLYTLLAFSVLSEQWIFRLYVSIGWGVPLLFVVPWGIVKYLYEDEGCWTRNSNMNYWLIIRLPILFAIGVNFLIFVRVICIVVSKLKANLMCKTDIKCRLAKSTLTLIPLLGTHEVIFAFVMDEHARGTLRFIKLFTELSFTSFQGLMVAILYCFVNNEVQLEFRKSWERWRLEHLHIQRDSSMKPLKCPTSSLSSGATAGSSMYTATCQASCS

As for Exenatide (exendin-4) (peptide), the EC50 (DiscoveRx GLP1R cAMP Hunter assay) turned out to be 0.066 nM.
As to “Stably-linked N-[6-azidohexyloxy]-exenatide conjugate of Example 5 (non-releasable control conjugate, R1 = absent, conjugated to DBCO-Lys(DEAC)-[GL4-400] 40 kDa four-branched PEG) (peptide)”, the EC50 (DiscoveRx GLP1R cAMP Hunter assay) is above 100 nM and the fold decrease of biological activity against free exenatide was above 10000 fold.
